From publication PMC8748767 (Nature Communications, 2022)

B1: Tyrosine hydroxylase deletion mutant with the first 35 residues deleted (THNΔ35) (domain or fragment)
chain: not shown
notes: human tyrosine hydroxylase isoform TH1 with the first 35 residues deleted; numbers count on: isoform TH1; also called THΔN35; THΔ35; source: recombinant, construct derived from pETMBP1a/TH (Genscript), expressed and purified essentially as TH; not shown: His, N-terminal, cleaved; MBP, N-terminal, cleaved
B2: Tyrosine hydroxylase deletion mutant lacking the N-terminal 43 residues (THNΔ43) (domain or fragment)
chain: not shown
notes: human tyrosine hydroxylase isoform TH1 lacking the N-terminal 43 residues; numbers count on: isoform TH1; source: recombinant, construct derived from pETMBP1a/TH (Genscript), expressed and purified essentially as TH; not shown: His, N-terminal, cleaved; MBP, N-terminal, cleaved
B3: Tyrosine hydroxylase deletion mutant with the entire N-terminal removed (THNΔ70) (domain or fragment)
chain: not shown
notes: human tyrosine hydroxylase isoform TH1 with the entire N-terminal tail (residues 1-70) removed; numbers count on: isoform TH1; also called THΔN70; source: recombinant, construct derived from pETMBP1a/TH (Genscript), expressed and purified essentially as TH; not shown: His, N-terminal, cleaved; MBP, N-terminal, cleaved

Target: the molecule itself
Test: SEC; preparative size-exclusion chromatography, HiLoad Superdex 200 prep grade (1.6 cm × 60 cm), 20 mM Na-Hepes pH 7, 200 mM NaCl

| Protein | stoichiometry N |
| --- | --- |
| B1 | 4 |
| B2 | 4 |
| B3 | 4 |
